Reference: patent US20080242617

T1: HalA1
T1 chain: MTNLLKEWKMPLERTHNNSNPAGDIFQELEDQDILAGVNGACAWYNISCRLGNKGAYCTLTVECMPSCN

T2: HalA2
T2 chain: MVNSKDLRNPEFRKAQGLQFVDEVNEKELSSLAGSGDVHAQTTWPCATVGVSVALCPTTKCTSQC


Tests used:
HalA1 = biological target: T1, HalA1
HalA2 = biological target: T2, HalA2

Protein | dehydration of the peptide, MALDI-TOF MS (HalA1) | iodoacetamide alkylation of free cysteines after HalM modification (cyclization), MALDI-TOF MS (HalA1) | dehydration of the peptide, MALDI-TOF MS (HalA2) | iodoacetamide alkylation of free cysteines after HalM modification (cyclization), MALDI-TOF MS (HalA2)
HalM1 (protein) MRELQNALYFSEVVFGPNLEKIVGEKRLNFWLKLIGEDPENLKEFLSRKGNSFEEQTLPEKEAIVPNRLGEEALEKVREELEFLNTYSTKHVRRVKELGVQIPFEGILLPFISMYIEKFQQQQLRKKIGPIHEEIWTQIVQDITSKLNAILHRTLILELNVARVTSQLKGDTPEERFAYYSKTYLGKREVTHRLYSEYPVVLRLLFTTISHHISFITEILERVANDREAIETEFSPCSPIGTLASLHLNSGDAHHKQRTVTILEFSSSLKLVYKPRSLKVDGVFNGLLAFLNDRTGEVIKDQYCPKVLQRDGYGYVEFVTHQSCQSLEEVSDFYERLGSLMSLSYVLNSSDFHFENIIAHGPYPVLIDLETIIHNTADSSEETSTAMDRAFRMLNDSVLSTGMLPSSIYYRDQPNMKGLNVGGVSKSEGQKTPFKVNQIANRNTDEMRIEKDHVTLSSQKNLPIFQSAAMESVHFLDQIQKGFTSMYQWIEKNKQEFKEQVRKFEGVPVRAVLRSTTRYTELLKSSYHPDLLRSALDREVLLNRLTVDSVMTPYLKEIIPLEVEDLLNGDVPYFYTLPEERALYQEASAINSTFFTTSIFHKIDQKIDKLGIEDHTQQMKILHMSMLASNANHYADVADLDIQKGHTIKNEQYVEMAKDIGDYLMELSVEGENQGEPDLCWISTVLEGSSEIIWDISPVGEDLYNGSAGVALFYAYLFKITGEKRYQEIAYKALVPVRRSVAQFQHHPNWSIGAFNGASGYLYAMGTIAALFNDERLKHEVTRSIPHIEPMIHEDKIYDFIGGSAGALKVFLSLSGLFDEPKFLELAIACSEHLMKNAIKTDQGIGWKPPWEVTPLTGFSHGVSGVMASFIELYQQTGDERLLSYIDQSLAYERSFFSEQEENWLTPNKETPVVAWCHGAPGILVSRLLLKKCGYLDEKVEKEIEVALSTTIRKGLGNNRSLCHGDFGQLEILRFAAEVLGDSYLQEVVNNLSGELYNLFKTEGYQSGTSRGTESVGLMVGLSGFGYGLLSAAYPSAVPSILTLDGEIQKYREPHEANH | Incubation of HalA1 with HalM1 generated a species that was dehydrated 3-fold | The mass of HalA1 after modification by HalM1 was increased by 116 Da, consistent with the addition of two adducts | Incubation of HalA1 with HalM2 or HalA2 with HalM1 did not result in modified peptide in either case | 
HalM2 (protein) TPLTSEHPSVPTTLPHTNDTDWLEQLHDILSIPVTEEIQKYFHAENDLFSFFYTPFLQFTYQSMSDYFMTFKTDMALIERQSLLQSTLTAVHHRLFHLTHRTLISEMHIDKLTVGLNGSTPHERYMDFNHKFNKTSKSKNLFNIYPILGKLVVNETLRTINFVKKIIQHYMKDYLLLSDFFKEKDLRLTNLQLGVGDTHVNGQCVTILTFASGQKVVYKPRSLSIDKQFGEFIEWVNSKGFQPSLRIPIAIDRQTYGWYEFIPHQEATSEDEIERYYSRIGGYLAIAYLFGATDLHLDNLIACGEHPMLIDLETLFTNDLDCYDSAFPFPALARELTQSVFGTLMLPITIASGKLLDIDLSAVGGGKGVQSEKIKTWVIVNQKTDEMKLVEQPYVTESSQNKPTVNGKEANIGNYIPHVTDGFRKMYRLFLNEIDELMDHNGPIFAFESCQIRHVFRATHVYAKFLEASTHPDYLQEPTRRNKLFESFWNITSLMAPFKKIVPHEIAELENHDIPYFVLTCGGTIVKDGYGRDIADLFQSSCIERVTHRLQQLGSEDEARQIRYIKSSLATLTNGDWTPSHEKTPMSPASADREDGYFLREAQAIGDDILAQLIWEDDRHAAYLIGVSVGMNEAVTVSPLTPGIYDGTLGIVLFFDQLAQQTGETHYRHAADALLEGMFKQLKPELMPSSAYFGLGSLFYGLMVLGLQRSDSHIIQKAYEYLKHLEECVQHEETPDFVSGLSGVLYMLTKIYQLTNEPRVFEVAKTTASRLSVLLDSKQPDTVLTGLSHGAAGFALALLTYGTAANDEQLLKQGHSYLVYERNRFNKQENNWVDLRKGNAYQTFWCHGAPGIGISRLLLAQFYDDELLHEELNAALNKTISDGFGHNHSLCHGDFGNLDLLLLYAQYTNNPEPKELARKLAISSIDQAHTYGWKLGLNHSDQLQGMMLGVTGIGYQLLRHINPTVPSILALELPSSTLTEKELRIHDR | Incubation of HalA1 with HalM2 or HalA2 with HalM1 did not result in modified peptide in either case |  | incubation of HalA2 with HalM2 generated a species that was dehydrated 7-fold | The mass of HalA2 modified by HalM2 remained unchanged under the alkylation conditions tested, consistent with the absence of free Cys residues
